Data from the nanobody polyreactivity screen of Harvey et al. (2022).

Assay: yeast display, Sf9 membrane polyspecificity reagent, FACS + sequencing; frameworks hold sequencing errors
How it was run: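 Synthetic nanobody libraries on Saccharomyces cerevisiae BJ5465 were galactose-induced for 36–48 hours, stained 1 hour at 4 °C with 10% biotinylated, detergent-solubilized Sf9 membrane reagent and enriched on streptavidin microbeads. FACS then separated cells into low and high (top ~1%) gates by anti-HA (expression) and streptavidin (reagent binding) fluorescence. Genes were colony-PCR amplified, MiSeq 2 × 250 sequenced and CDR-length filtered. A clone's polyreactivity label is that of its gate of origin.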

| Sequence | polyreactivity (PSR sort gate) |
| --- | --- |
| QVQLVESGGGLVQAGGSLRLSCAASGFIYGPNAMGWYRQAPGKERELVAAISYSGGRTYYADSVKGRFTISRDNAKNTVYLQLISLKPEDSAVYYCAAERKIKYDYWGQGTQVTVSS | high polyreactivity |
| QVQLVESGGGLVQAGGRLRLSCAASGRTFYYNGMGWYRQAPGKERELVAAITSGGTTSYADSVKGRFTISRDNAKNTVYLQMNSLKPEDTAVYYCNADYWAVNYDYWGQGTQVTVSS | low polyreactivity |
| QVQLVESGGGLVQAGGSLRLSCADSGSIFLRYAMGWYRQAPGKERELVAAISCRGGSTYYADSVKGRFTISRDNAKNTVYLQMNSQKPEDTAVYYCAAYRGRSLEYDYWGQGTQVNVSS | high polyreactivity |
| QVQLVESGGGLVQAGGSLRLSCAASGFIFGVYPMGWYRQAPGKERELVAAISRSGGSTYYADSVKGRFTISRDSAKNTVYLQMNSLNPEDTAVYYCATHVSLYGKGYYYWGQGTQVTVSS | high polyreactivity |
| QDQLVESGGGLVQAGGSLRLSCAASGSTFSKNTMGWYRQAPGKERELVAAITTRGSSTYYADSVKGRFTISRDNAKNTVYLQMNSLKPEDTAVYYCNAPYRVTGGRYRWYDYWGQGTQVTVSS | high polyreactivity |
| QVQLVESGGGLVQARGILRLSCAASGSTFYTYTAMGWYRQAPGKERELVAAITWRGGSTYYADSVKGRFTIARDNAKNTVYLQMNSLKPQDSAVSSCAATLNRYGYDYWGQGTQVTVSS | high polyreactivity |
| QVQLVESGGGLVQAGGSLRLSCAASGRTFGPNVMGWYIQAPRKERELVAAITSGGTTYYADSVKGRFTISRDNANNTVYLLMNSLKPEDTAVYYCAKVLRGGRYDYWGQGTQVTVSS | low polyreactivity |
| QGQLVESGGGLVQAGGSLRLSCAASGRTLYYYAMGWYRQAPGKERELVASIDWDSGITDYADSVTGRFTISRANAKNTVYLQMNILTPEDTAVYYCAAVRVTKKYSYEYWGQGTQVTVSA | low polyreactivity |
| QVQLVESGGGLVQAGGSLRLSCAASGFTFTYYAMGWYRPAPGKERELVAAISTGGSTYYADSVKGRFTISRDNAKNTVYLQMNSLKPEDTAVYYCNAKPRYRKADRLDYWGQGTQVTVSS | high polyreactivity |
| QVQLVESGGGLVQAGGSLRLSCADSGFNFYQYAMGWYRQAPGKERELVAVISGSGSRTYYADSVKGRFTISRDNAKNTVYLQMNSLKPEDTAVYYCAAKGVIISYDTLRYDSWGQGTQVTVSS | high polyreactivity |
| QVQLVESGGGLVQAGGSLRLSCAPSAGTFSPYDMGWSRQSPGKQRELVASITGSGGSTYFADSVKGRFTISRGNAKNTVYLQMNSLKPEDTAVYYCDAQGYWTYWPYLLRLYDYWGQGTQVTVSS | low polyreactivity |
| QVQLVESGGGLVQAGGSLRLSCAASGRIFGSYVMGWYRQAPGKERELVAAISIGGITKYADSVKGRFTISRDNAKNTVYLQMNSLKPEDTAVYYCAARLVRRYDYDYWGQGTQVTVSS | high polyreactivity |
| QVQLVESGGGLVQAGGSLRLSCAASGSIFKYNPMGWYRQAPGKEMELVATISGGGRTYYADSVKGRFTISRDNAKNTVYLQMNSLKPEDTAVYYCAARKRGTFTYDYWGQGTQVTVSS | high polyreactivity |
| QVQLVESGGGLVQAGGSLRLSCAASGRIFEWNTMGWYRQAPGKEREVVATISWDGGSTYYADSVKGRFTISRDNAKNTVYLQMNSLIPEDTAVYYCNKSPLNFFRFRATYDYWGQGTQVTVSS | low polyreactivity |
| QVQLVESGGGLVQAGGSLRLSCAASGYIFVKNAMGWYRQAPGTERELVAAISTRGGRTYYADSVKGRFTISRDNAKNTVYLQMNSLKPEDTAVYYCAAVHQTSYYDANSYGYWGQGTQVTVSS | high polyreactivity |
| QVQLVESGGGLVQAGGSLRLSCAASGFTYIDYAMGWYRQAPGKERELVAAITSRGGTTYYADSVKGRFTISRDNAKNTVYLLMNSLKPEDTAVYYCNAGSSFWVSRIGYDYWGQGTQVTVSS | high polyreactivity |

| Sequence | polyreactivity (PSR sort gate) |
| --- | --- |
| QVQLVESGGGLVQAGGSLRLSCAASGRIFPTYAMGWSRQAPGKERELVAAISRRTTRTYYADSVKGRFTISRDNAKNTVYLQMNSLKPEDTAVYYCAARLYSSVVRYRYGYWGQGTQVTVSS | high polyreactivity |
| QVQLVESGGGLVQAGGSLRLSCAASGRTFTVNAMGWYRQAPGKEREFVATISYRGGSTYADSVKGRFTISRDNAKNNVYLQMNSLKPEDTAVYYCAARSFWPYYGGDYDYWGQGNQVTVSS | high polyreactivity |
| QVQLVESGGGLVQAGGSLRLSCAASGSTFPQNDMGWYRQAPGKERELVAAITRSAGSTYYADSVKGRFTISRDNAKNTVYLQMNSLKPEDTAVYYCNTGRQRGDGWGQGTQVTVSS | high polyreactivity |
| QVQQQESGGGLVQAGGSLRLSSAASVTILYTLGLGLYRQAPGKTLEFVASITWGTTTNYAESVKGRFTISRDNAKNSVYLQMNSLKPEDTADYYCAARKFVYWYGMEYWGQGTQVTVSS | low polyreactivity |
| QVQLQESVGGLVQACGSQRLICAASGYIFSHQYMGCYRQAPGKERELVASMSPGATTNYADRVKGRFTISRDNAKNTVYLQMNSLKTEDTAVYYYAVYQILDRRLSYWGQGTQVTVSC | high polyreactivity |
| QVHLVESGGGLVQAGGSLRLSCAASGFLFRTYAMGWYRPGPGKERELVDAISNDANTKYADSVKGRFTISRDNAKNTVYLQMNSLKPEDTAVYYGAAKAIYRGRYLKIVKVGYWGQGTQVTVSS | high polyreactivity |
| QVQLGESGGGLVQAGGSLRLSCAASGRIFSYYAMGWYRPAPGKERELVAAISYRGSSTNYADSVKGRFTISRDNAKNTVYFQMNSLKPEDTAVYYCATKFFRTAYEYWGQGTQVTVSS | high polyreactivity |
| QVQLVESGGGLVQAGGSLRLSCAASGSIFYDNALGWYRQAPGKERELVAAIDDSDRTYYADSVKGRFTISRDNAKNTVYLQMNSLKPEDTAVYYCARDRWKWHYGYDYWGQGTQVTVSS | low polyreactivity |
| QVQLEESGGGIVQAGGSLRLSCAASGITFYWYAMGWYRQAPGKERELVASITGNGGGTSYADSVKGRFTISRDNAKNTVYLQMNSLKPEDTAVYYCNTSVGVKDYVSWGQGTQVTLSS | low polyreactivity |
| QVQLVESGGGLVQAGGSLRLSCAASGRIFYYNAMGWYRQAPGKERELVATITGSGGSTYYADSVKGRFTISRDNAKNTVYLQMNSLKPEDTAVYYCNATRWYYDFYKLDYWGQGTQVTVSS | low polyreactivity |
| QVQLVESGGGLVQAGGSLRLSCAASGNIFTQYGMGWYRQAPGKERELVAAISRRGGSTYYADSVKGRFTISRDNAKNTVYLQMNSLNPEDTAVYYCARRTNRPPWGFEYWGQGTQVTVSS | high polyreactivity |
| QVQLVESGGGLVQAGGSLRLSCAASGITILRYAMGWYRQAPGKERELVARITRSGGSTYYADSVKGRFTISRDNAKNTVYLQMNSLKPEDTAVYYCNDVRSAGDGDYWGQGTQVTVSS | high polyreactivity |
| QVQLVESGGGLVQAGGSLRLSCAASGFIFVIYAMGWYRQAPGKERELVARISFRSGRTYYADSVKGRFTISRDNAKNTVYLQMNSLKPEDTAVYYCNAVLYGQYKYDYWGQGTQVTVSS | high polyreactivity |
| QVQLVESGGGLVQAGGSLRLSCAASGRTFHYYVMGWYRQAAGKERELVAAISRSGGNTYYADSVKGRFTISRDNAKNTVYLQMNSLKPEDTAVYYCAAALSAYVKWDYYYWGQGTQVTVSS | low polyreactivity |
| QVQLVESGGGLVQAGGSLRLSCAASGSNFTSYAMGWYRQAPGKERELVAAITRGGRTYYADSVKGRFTISRDNAKNTVYLQMNSLKPEDTAVFYCNAPGYRGYEYWGQGTQVTVSS | high polyreactivity |
| QVQLVESGGGLVQAGGSLRLSWAASGRTFGVYAMGWYRQAPGTERELVATITRSGGRTYYADSVKGRFTLSRDTAKNTVYLQMNSLKPEATAVYYCNAGHGSLRYNYWGQGTQVTVSS | high polyreactivity |
